Conditions: Bacillus amyloliquefaciens, 25 °C, Urea, NMR, NaCl 1 M, whole UniProt chain shown

B1: Ribonuclease wild type, P00648 (protein)
chain: MMKMEGIALKKRLSWISVCLLVLVSAAGMLFSTAAKTETSSHKAHTEAQVINTFDGVADYLQTYHKLPDNYITKSEAQALGWVASKGNLADVAPGKSIGGDIFSNREGKLPGKSGRTWREADINYTSGFRNSDRILYSSDWLIYKTTDHYQTFTKIR
B1 showed an unfolding free energy (pH 4.4, Sodium acetate 30 mM) of 8.13 kcal/mol and an unfolding free energy (pH 8.9, Tris 30 mM) of 8.05 kcal/mol.

From FireProtDB (doi:10.1021/bi00123a006)
